By IC50 is commonly meant the concentration needed to halve the response being measured. Low values mean greater potency in that assay, high ones weaker potency in that assay. As a reminder, the stoichiometry N is the number of molecules, sites or subunits per partner or assembly. As usually defined, the Km is the substrate concentration at which the rate is half of its maximum. The term kcat denotes the maximal rate divided by the concentration of active sites. A word on the kcat/Km: it is the turnover number divided by the Michaelis constant.

The values that follow come from publication PMC10162664, “Microbial β-glucuronidases drive human periodontal disease etiology” (Science Advances, 2023).

Series [1] concerns the target T1, TlGUS L1 (Treponema lecithinolyticum β-glucuronidase) (Treponema lecithinolyticum, UniProt A0AA82WPE8).
T1 construct: recombinant, N-terminal (His)6 tag retained
Put plainly: […] Å crystal structure (as ciprofloxacin-GlcA conjugate formed with PNPG); IC50. It counts as biochemical.

Series [2] has as its target Tannerella forsythia GUS L2 (loop 2 β-glucuronidase) (Tannerella forsythia). Briefly: SEC-MALS; Superdex 200; protein at 2 mg/ml in 20 mM Hepes (pH 7.4), 300 mM NaCl; 50 μl injected, 0.5 ml/min. Background: SEC sorts molecules by how far they enter the pores of the column.
Series [3] has the same target. Briefly: crystal structure; hanging drop vapor diffusion at room temperature; quaternary structure seen in the crystal.
In series [4] the target is Tannerella forsythia GUS mL1 (mini-loop 1 β-glucuronidase) (Tannerella forsythia). Briefly: SEC-MALS; Superdex 200; protein at 2 mg/ml in 20 mM Hepes (pH 7.4), 300 mM NaCl; 50 μl injected, 0.5 ml/min.
The target is the same in series [5]. Briefly: crystal structure; hanging drop vapor diffusion at room temperature; quaternary structure seen in the crystal.
Series [6] addresses T1, TlGUS L1 (Treponema lecithinolyticum β-glucuronidase). Put plainly: […] Å crystal structure (as UNC4917-GlcA conjugate formed with PNPG); 4-MUG hydrolysis IC50. It is filed as biochemical.
Series [7] has as its system Cc1cc(=O)oc2cc(O[C@@H]3O[C@H](C(=O)O)[C@@H](O)[C@H](O)[C@H]3O)ccc12. Briefly: purified protein. Conditions: pH 5.0.
Series [8] deals with Treponema lecithinolyticum GUS L1 (loop 1 β-glucuronidase) (Treponema lecithinolyticum). Put plainly: SEC-MALS; Superdex 200; protein at 2 mg/ml in 20 mM Hepes (pH 7.4), 300 mM NaCl; 50 μl injected, 0.5 ml/min.
The target is the same in series [9]. Briefly: crystal structure; hanging drop vapor diffusion at room temperature; quaternary structure seen in the crystal.
Series [10] concerns the target T1, TlGUS L1 (Treponema lecithinolyticum β-glucuronidase). Briefly: […] Å crystal structure. It counts as binding.
Substrate in the series “purified protein”: Cc1cc(=O)oc2cc(O[C@@H]3O[C@H](C(=O)O)[C@@H](O)[C@H](O)[C@H]3O)ccc12
Put plainly: purified protein. As to conditions: pH 5.0. The source holds these as a separate data set.

`O=C(O)c1cn(C2CC2)c2cc(N3CCNCC3)c(F)cc2c1=O` [ciprofloxacin]: in series [1], the IC50 came to 18.3 µM. Turning to “Tannerella forsythia GUS L2 (loop 2 β-glucuronidase) (enzyme)”, the stoichiometry N in series [2] and in [3] was 2 each time.

In the case of “Tannerella forsythia GUS mL1 (mini-loop 1 β-glucuronidase) (enzyme)”, the stoichiometry N in series [4] and in series [5] was 4 throughout. For `CNc1ccc2c(n1)sc1c(N3CCNCC3)nc(NC)nc12` [UNC4917], in series [6], the concentration for half-maximal inhibition (IC50) was determined as 2.5 µM. As to “TlGUS L1 (Treponema lecithinolyticum β-glucuronidase) (Treponema lecithinolyticum)”, in series [7], the Km was 6.8 ± 1 µM, the kcat worked out at 19 ± 1 s⁻¹ and the catalytic efficiency (kcat/Km) is 2.8e+06 M⁻¹ s⁻¹.

“Treponema lecithinolyticum GUS L1 (loop 1 β-glucuronidase) (enzyme)”: the stoichiometry N in series [8] and in series [9] was 4 throughout. Take `CNc1ccc2c(n1)sc1c(N3CCN([C@@H]4O[C@H](C(=O)O)[C@@H](O)[C@H](O)[C@H]4O)CC3)nc(NC)nc12` [UNC4917-GlcA, UNC4917-GlcA conjugate]: in series [10], the “1.75 Å crystal structure” value is listed as “The UNC4917-GlcA conjugate is located within the active site”.

B1: human GUS (β-glucuronidase) (Homo sapiens) (protein)
chain: LQGGMLYPQESPSRECKELDGLWSFRADFSDNRRRGFEEQWYRRPLWESGPTVDMPVPSSFNDISQDWRLRHFVGWVWYEREVILPERWTQDLRTRVVLRIGSAHSYAIVWVNGVDTLEHEGGYLPFEADISNLVQVGPLPSRLRITIAINNTLTPTTLPPGTIQYLTDTSKYPKGYFVQNTYFDFFNYAGLQRSVLLYTTPTTYIDDITVTTSVEQDSGLVNYQISVKGSNLFKLEVRLLDAENKVVANGTGTQGQLKVPGVSLWWPYLMHERPAYLYSLEVQLTAQTSLGPVSDFYTLPVGIRTVAVTKSQFLINGKPFYFHGVNKHEDADIRGKGFDWPLLVKDFNLLRWLGANAFRTSHYPYAEEVMQMCDRYGIVVIDECPGVGLALPQFFNNVSLHHHMQVMEEVVRRDKNHPAVVMWSVANEPASHLESAGYYLKMVIAHTKSLDPSRPVTFVSNSNYAADKGAPYVDVICLNSYYSWYHDYGHLELIQLQLATQFENWYKKYQKPIIQSEYGAETIAGFHQDPPLMFTEEYQKSLLEQYHLGLDQKRRKYVVGELIWNFADFMTEQSPTRVLGNKKGIFTRQRQPKSAAFLLRERYWKIANETRYPHSVAKSQCLENSLFT
As for B1, in “purified protein”, the Km is 84 ± 7 µM, the kcat came to 2.2 s⁻¹ and the kcat/Km came to 26000 M⁻¹ s⁻¹.
